What was measured:
[1] = tested on: human dermal microvascular endothelial cells; assay: Endothelial cell migration assay (modified Boyden chamber), human dermal microvascular endothelial cells; assay type: cell-based; conditions: 10 ng/ml bFGF plus PEDF; FIG. 1
Method: The cells were plated on gelatinized Nucleopore membranes (5 μm pores for bovine capillary cells and 8 μm pores for other cells) in an inverted modified Boyden chamber. After two hours, the chamber was reinverted and test substances added to the top wells of each. Specifically, populations were exposed to either culture medium alone (control), 10 ng/ml bFGF, 2 nM PEDF (full length PEDF), or both 10 ng/ml bFGF (basic fibroblast growth factor) and 10 nM PEDF. The cells were then permitted to migrate for 3-4 hours. Following this, the membranes were fixed and stained, and the number of cells that had migrated were counted.
Additional truncated peptides derived from PEDF were tested for efficacy in the endothelial cell migration assay using human dermal microvascular endothelial cells (Clonetics, Cell Systems) at passage 9 in a modified Boyden Chamber, as described above, and the results are shown in FIG. 7. In FIG. 7A, the cells were exposed to the gradient of VEGF in the presence of purified recombinant PEDF (rPEDF), bacterially produced PEDF (BH) or PEDF peptides containing only amino acid residues 78-121 (44-mer) and 44-77 (34-mer) referring to SEQ ID NO:1. Neutralizing antibodies were added where shown to verify if the anti-angiogenic effect is specific to PEDF peptides and not due to contamination. Both full length PEDF preparations were used at 25 nM, neutralizing polyclonal antiserum against PEDF was used at 1:200 dilution, recombinant human VEGF (R&D Systems) at 200 pg/ml. In FIG. 7B, the cells were exposed to the gradient of VEGF in the presence of increasing concentrations of 34-mer and 44-mer peptides. The antiserum used in this experiment was not affinity purified, whereas the antiserum used in all other experiments presented herein was affinity purified.

[2] = tested on: skin of athymic (nude/nude) mice; assay: Hair follicle density in skin of athymic nude mice after PEDF injection; assay type: in vivo, mouse; conditions: 2 μg purified PEDF daily for four days into tumors; FIG. 8
Method: FIG. 8, comprising FIGS. 8A, 8B and 8C, is a series of images of photomicrographs of sections of skin obtained from animals treated with PEDF, wherein hair follicles are depicted. Human neuroblastoma tumors growing subcutaneously in nude mice were injected at 2-3 sites/tumor for four consecutive days with 2 μg of purified PEDF. On the fifth day, hair was noticed growing over the treated tumors. […] Similar increases in hair follicle density have been seen in the absence of tumors following injection of purified PEDF.
The treatment consisted of injecting a total of 2 μg of purified histidine-tagged PEDF in a volume of 100 μl of phosphate buffered saline into 2-3 sites/tumor each day for 4 consecutive days. On the fifth day, a small area of increased hair growth was noticed over the injection sites. The mice were euthanized using an overdose of metaphane, and the tumors were surgically removed. Tumor tissue was sliced and placed in buffered formalin for at least 24 hours. Tissue was embedded in paraffin and prepared for histologic examination. The skin overlying neuroblastoma tumors treated with PEDF had increased hair follicle density when compared with the skin overlying tumors injected with saline vehicle (FIG. 8). Similar increases in hair follicle density have been seen in the absence of tumors following injection of purified PEDF.

[3] = tested on: capillary endothelial cells; assay: bFGF-induced proliferation of capillary endothelial cells; assay type: cell-based; conditions: PEDF doses of 1.0 nM or greater
Text: Human PEDF cDNA was engineered by polymerase chain reaction to encode a COOH-terminal hexahistidine tag, cloned into pCEP4 (Invitrogen, Carlsbad, Calif.), and transfected into human embryonic kidney cells. Recombinant PEDF was purified from the conditioned media with the Xpress Protein Purification System (Invitrogen, Carlsbad, Calif.).

[4] = tested on: avascular rat cornea; assay: Rat cornea neovascularization assay (implanted pellets); assay type: in vivo
Method: FIG. 13, comprising FIGS. 13A and 13B, is a table and a series of images of photomicrographs depicting inhibition of neovascularization by purified PEDF and by PEDF present naturally in normal human vitreous and cornea. FIG. 13A: Recombinant (rPEDF) or purified (pPEDF) PEDF (8 nM), PEDF peptide 327 to 343 (299 μg/ml), undiluted vitreous fluid, or corneal extract (used at 200 μg of protein per milliliter) was incorporated with vehicle (PBS) and the indicated additions into Hydron pellets that were implanted into the avascular rat cornea. Vigorous ingrowth of vessels from the limbus toward the pellet by 7 days was scored as a positive response (Polverini, et al, 1991, Methods Enzymol 198:440). Where noted, anti-PEDF linked to protein A beads was used to remove PEDF from vitreous fluid and corneal extract. FIG. 13B, comprising FIGS. 13B-1 through 13B-8: Representative photos of corneal responses from FIG. 13A shown at X13 magnification. PEDF antipeptide antibody (anti-PEDF) was raised in rabbits against a peptide containing pEDF amino acids 327-343, conjugated to Keyhole-limpet hemocyanin, and affinity-purified on a peptide column. Polyclonal antisera against bacterial recombinant PEDF/EPC-1 (anti-EPC-1) is described in DePaolo, et al. (1995, Exp. Cell Res. 220:178) and the antiangiogenic protein angiostatin is descried in O'Reilly, et al. ([…], Cell 79:315). Purchased reagents included neutralizing anti-VEGF (Genzyme Cambridge, Mass.), pan antibodies to TGFβ, and all angiogenic inducers (R&D Systems, Minneapolis, Minn.) except lysophosphatidic acid (Sigma). All proteins and antibodies were extensively dialyzed against PBS before use in biological assays. FIG. 13B-1 corresponds to sample 2 of FIG. 13A; FIG. 13B-2 corresponds to sample 12 of FIG. 13A, FIG. 13B-3 corresponds to sample 3 of FIG. 13A; FIG. 13B-4 corresponds to sample 11 of FIG. 13A; FIG. 13B-5 corresponds to sample 8 of FIG. 13A; FIG. 13B-6 corresponds to sample 16 of FIG. 13A; FIG. 13B-7 corresponds to sample 6 of FIG. 13A; FIG. 13B-8 corresponds to sample 17 of FIG. 13A. […]

[5] = PEDF 8 nM in pellet, seven days

B1: PEDF: full length pigment epithelium derived growth factor, SEQ ID NO:1; purified from WERI-Rb-27R medium or recombinant histidine-tagged (protein, listed as Homo Sapiens)
chain: MQALVLLLCIGALLGHSSCQNPASPPEEGSPDPDSTGALVEEEDPFFKVPVNKLAAAVSNFGYDLYRVRSSMSPTTNVLLSPLSVATALSALSLGADERTESIIHRALYYDLISSPDIHGTYKELLDTVTAPQKNLKSASRIVFEKKLRIKSSFVAPLEKSYGTRPRVLTGNPRLDLQEINNWVQAQMKGKLARSTKEIPDEISILLLGVAHFKGQWVTKFDSRKTSLEDFYLDEERTVRVPMMSDPKAVLRYGLDSDLSCKIAQLPLTGSMSIIFFLPLKVTQNLTLIEESLTSEFIHDIDRELKTVQAVLTVPKLKLSYEGEVTKSLQEMKLQSLFDSPDFSKITGKPIKLTQVEHRAGFEWNEDGAGTTPSPGLQPAHLTFPLDYHLNQPFIFVLRDTDTGALLFIGKILDPRGP
migration, percentage of maximal migration [1]: considerably less migration was observed
density of hair follicles compared with vehicle-treated skin [2]: three-fold increased density of hair follicles
inhibition of bFGF-induced proliferation [3]: 40%
effect on neovascularization in the rat cornea ([4]; Hydron pellets, 7 days, FIGS. 13A and 13B): potently inhibited neovascularization
number of corneas with angiogenesis/number of corneas implanted, With bFGF [4, 5]: 0/3
number of corneas with angiogenesis/number of corneas implanted, Without bFGF [4, 5]: 0/3

Reference: patent US6919309B2, “Methods and compositions for inhibiting angiogenesis” (Northwestern University, priority 1997, dated 2005)
